Assay results reported in patent US20080069777A1.

Legend:
[1] = target: whole LFA-1 in which the α subunit contains an I-domain in the low affinity locked closed state, on cells (LA cells) (human) (UniProt P05107); assay: phage ELISA, LA form of LFA-1, with Mg2+
[2] = target: whole LFA-1 in which the α subunit contains an I-domain in the low affinity locked closed state, on cells (LA cells) (human) (UniProt P05107); assay: phage ELISA, LA form of LFA-1, without Mg2+
[3] = target: whole LFA-1 in which the α subunit contains an I-domain in the high affinity locked open state, on cells (HA cells) (human) (UniProt P05107); assay: inhibition of ICAM binding to HA cells, Guava analysis; third experiment
[4] = target: human wild-type LFA-1 on cells (human) (UniProt P20701); assay: inhibition of ICAM binding to human PBMCs; average of four experiments
[5] = target: whole LFA-1 in which the α subunit contains an I-domain in the high affinity locked open state, on cells (HA cells) (human) (UniProt P05107); assay: inhibition of ICAM binding to HA cells, Guava analysis; first experiment
[6] = target: whole LFA-1 in which the α subunit contains an I-domain in the high affinity locked open state, on cells (HA cells) (human) (UniProt P05107); assay: inhibition of ICAM binding to HA cells, Guava analysis; fourth experiment
[7] = target: whole LFA-1 in which the α subunit contains an I-domain in the high affinity locked open state, on cells (HA cells) (human) (UniProt P05107); assay: inhibition of ICAM binding to HA cells, Guava analysis; second experiment

Sequence of human wild-type LFA-1 on cells (human) (P20701 other isoform, or with tags, fused parts or gaps limits assumed, chain 1 of 2): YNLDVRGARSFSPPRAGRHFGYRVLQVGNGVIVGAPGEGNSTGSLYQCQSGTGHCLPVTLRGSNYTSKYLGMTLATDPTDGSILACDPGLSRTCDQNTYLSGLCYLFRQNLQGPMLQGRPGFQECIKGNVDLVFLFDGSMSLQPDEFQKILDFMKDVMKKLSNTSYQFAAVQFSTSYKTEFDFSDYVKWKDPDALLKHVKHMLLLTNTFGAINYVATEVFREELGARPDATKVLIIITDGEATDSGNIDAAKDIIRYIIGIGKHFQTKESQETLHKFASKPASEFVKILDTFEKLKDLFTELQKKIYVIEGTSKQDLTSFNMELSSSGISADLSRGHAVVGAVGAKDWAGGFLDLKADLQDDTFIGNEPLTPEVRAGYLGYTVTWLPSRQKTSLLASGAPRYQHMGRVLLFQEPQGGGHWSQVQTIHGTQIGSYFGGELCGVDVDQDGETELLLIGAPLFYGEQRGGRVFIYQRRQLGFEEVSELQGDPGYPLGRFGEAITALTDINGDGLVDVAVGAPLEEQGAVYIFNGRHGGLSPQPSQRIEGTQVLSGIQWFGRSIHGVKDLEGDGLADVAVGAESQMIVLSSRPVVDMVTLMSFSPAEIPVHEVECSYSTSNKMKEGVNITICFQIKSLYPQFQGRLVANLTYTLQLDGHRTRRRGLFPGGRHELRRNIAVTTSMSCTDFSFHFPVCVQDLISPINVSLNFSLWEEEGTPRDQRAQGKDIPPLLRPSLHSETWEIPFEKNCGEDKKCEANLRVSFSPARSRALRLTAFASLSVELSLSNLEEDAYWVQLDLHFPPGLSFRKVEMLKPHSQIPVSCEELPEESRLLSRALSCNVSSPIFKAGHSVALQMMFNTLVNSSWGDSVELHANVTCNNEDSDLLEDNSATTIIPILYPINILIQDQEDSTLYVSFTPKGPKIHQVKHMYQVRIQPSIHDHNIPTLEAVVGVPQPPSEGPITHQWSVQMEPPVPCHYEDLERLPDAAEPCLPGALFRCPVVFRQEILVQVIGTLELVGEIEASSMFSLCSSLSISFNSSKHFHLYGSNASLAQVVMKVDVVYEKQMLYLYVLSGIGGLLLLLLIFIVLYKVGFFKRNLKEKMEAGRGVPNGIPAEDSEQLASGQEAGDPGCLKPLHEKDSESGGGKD
Sequence of human wild-type LFA-1 on cells (human) (chain, as listed by the source limits assumed, chain 2 of 2): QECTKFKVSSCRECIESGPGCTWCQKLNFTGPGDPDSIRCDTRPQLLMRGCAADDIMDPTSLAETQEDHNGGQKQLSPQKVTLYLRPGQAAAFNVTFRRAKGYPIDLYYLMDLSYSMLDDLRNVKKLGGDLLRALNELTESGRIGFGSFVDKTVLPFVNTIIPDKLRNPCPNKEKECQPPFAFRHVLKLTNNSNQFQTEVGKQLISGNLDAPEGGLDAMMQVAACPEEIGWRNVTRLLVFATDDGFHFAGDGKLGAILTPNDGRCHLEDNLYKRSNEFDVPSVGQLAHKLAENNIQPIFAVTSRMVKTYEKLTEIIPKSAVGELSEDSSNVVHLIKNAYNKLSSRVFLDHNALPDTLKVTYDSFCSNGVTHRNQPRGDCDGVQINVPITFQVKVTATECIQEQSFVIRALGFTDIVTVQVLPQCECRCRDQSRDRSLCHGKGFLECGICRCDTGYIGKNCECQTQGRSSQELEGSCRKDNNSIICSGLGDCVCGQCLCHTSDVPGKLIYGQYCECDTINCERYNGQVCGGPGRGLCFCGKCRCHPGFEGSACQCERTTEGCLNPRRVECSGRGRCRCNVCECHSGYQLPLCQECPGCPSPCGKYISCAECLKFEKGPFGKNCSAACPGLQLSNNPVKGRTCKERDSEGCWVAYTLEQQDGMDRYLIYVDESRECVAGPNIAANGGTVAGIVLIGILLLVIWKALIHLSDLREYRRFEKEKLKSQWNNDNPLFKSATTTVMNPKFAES

In the case of “Control #1 (a phage that binds to a different target)”, the ELISA signal (arbitrary units) [1] is reported as 0.13 and the ELISA signal (arbitrary units) [2] is reported as 0.07.
“Control #2 (another protein that binds to a different target)” was tested, and the ELISA signal (arbitrary units) [1] was 0.14 and the ELISA signal (arbitrary units) [2] was 0.07.
For MHM24 IgG (antibody), the IC50 [3] was 0.59 nM, the IC50 [4] was 0.33 nM and the IC50 [5] was 0.24 nM. It also gave an IC50 [6] of 2.4 nM and an IC50 [7] of 1.8 nM.
